Results taken from a protein production outcome set (Wang et al. 2014).

Assay: label from the status in PepcDB records

Sequence	protein production
RIVGELEQMVSEDVPLDHRVHARIIGARGKAIRKIMDEFKVDIRFPQSGAPDPNCVTVTGLPENVEEAIDHILNLEEEYLAD	not failed
RLAHVSAASRELARALEPDAVMAVLAGILRERLGFYRVTVALVREGALVGHLTRRGEDLYWTEGRSRIRLPVATSPDPMAQAVRERRTRIVPREALPPHLAEGVGASVAYVPVLVEEEALGCVAVDHGPGGPPVTEEEVEYVELLAGVAGVALRNAQLYRERTALSLALAAERKRLS	failed
RLKLLYDAGLGIGTTLDVLRTADELAQVAVPRFADFVTVDLADAVLHGEEPAPTATDLRRTAVCGIRDDHPLYELGQLIDFLPSTPQARGYGSGYSELVTDLSTATGWHAQDPERTKAIIDYGIHSLIAAPIQARGVVLGMANFWRSKQHEPFVEEEMSLAEELVARAAVSIDNARRYTREHALAVTLQRSL	not failed
RLNFLDTLGRAVTEATDPDQIMAITTRMLVEHLGLSSCAYAVMDPDEDGFTICGDAVTPGSPRLVGHYHLHDFGRLAVSRLRSGLALVINDNLRELAADEAATYQAIGITATICMPLIKGGRLTALMAIHDRVPRAWTDYEQTLISEVTERCWAHIQRAQAHAEVREAMAALEALNTTLE	failed
RLQPIIVPGWQGSGPGHWQTHWSRTLPHAVRLQQRDWHQPQRAEWVAALAAAVDAAPTPVLLVAHSLGCLVSAALPIALRAKVAGALLVAPADVERPGAPAAIAAFGPVPRQSLPYQSVVIASDDDPYCRLERARQFAQDWGSRLVVLQGAGHINADSQLGAWPQGLKQLAALRRRACW	failed
RLRQPMLRTGDQWQPIEWQAAFDLVAERLYAIQQQHGQNAVAVYQGNPSVHNYGLMTHSNYFLGLLKTRNRFSATSVDQLPHHLTSFLMYGHGMLLPIPDIDHTDFMLILGGNPLASNGSIMTVPDVEKRLKAIQQRGGKLVVVDPRRSETAAIADQHVFVRPGGDAALLFGLLNTLFEEGLTRESHLPVDGLDHVRHSIAGFSAEAMSPRCGIAAVQIRQLARDFAGADTALCYGRMGVSTQAFGTLCHWLAQLINLVTGNLDRVGGTLCTEPAVDLVSSTSGGHFNVWQSRVSGLPEYGGELPVSALAEEMLVEGQGQVRALVTVAGNPVLSTPNGRQLDQALEGLEFMLSIDLYINETTRHADLILPSTSALENDHYDTTFNTLAVRNVTRFNRAIFDKPEGALHDWEIFVGLAASFAAKAQRELKPTVPPAQMIDRVLRAGRYGAASPHNLSLETLASHPHGMDLGALKPNLTDRLKTANGRIQAAP	failed
RNFLNNQQIRAQVHRRILEQLPTEGEIVLLGHSLGSVIAADLLRRLPPELTVKGFVTIGSPLANGQFNVDDLFKLLRTPLSNVSWWVNFWSGS	failed
RNTNPGIKCFAVRSLGWVEMTEEELAPGRSSVAVNNCIRQLSYHKNNLHDPMSGGWGEG	failed
RPSWGYARSMAGRLAGATAVLDVQTGGGEVLDFALEAAGPHRAPLVAATEGWAPNVAQATRLLRPRGVPVVASADDAPLPFADGAFDLVVSRHPVEPHWDEVARVLMPGGTYFAQHVGPASVFELIEYFLGPLPEDSRRHRDPERERADAEAAGLEVVELRAERLRMEFLDIGAVVHFLRKVVWMVPGFTVEAYRDRLRDLHERIEADGPFVAHSSRHLFDVRKP	failed
RQRSLSTSGESLYHVLGLDKNATSDDIKKSYRKLALKYHPDKNPDNPEAADKFKEINNAHAILTDATKRNIYDKYGSLGLYVAEQFGEENVNTYFV	not failed
RQVTDSDETEELIHLLLDNYAEGKIVKLLFMSENATQPVISQVAKENDVMLNVLHGNLTQTQNGAYGTLYVQVLGTEEAIEASLTQLRQLKVETEVLER	not failed
RRKVGVLVDGPNMLRKEFNINLKEIREILSEYGDIKIAKVFLNQYATEKLVEAIENQGFEPIVTSGDVDVRMAVEAMELIYNDSIDAVALVTRDADFKAVLMKAMEMGKETIIIGAEPGFSTALKNSADIAIVLNEDEE	failed
RRLPTVLLKLRMAQHLQAAVAFVEQGHVRVGPDVVTDPAFLVTRSMEDFVTWVDSSKI	not failed
RSRIDTALNRGRCGLWDWDLSRGRIFWSQSMFTILGLESRNDLLTFGEVNALVKGEDIDLFAIADELMAGRVDHIDHSFQMRHAHGHWIWLRMRCELTQEAGATEKHLIGIAVDITEQKSLAERSVEADLRLRDAIETIPEAFVLWDAENRLVLCNSHFQRL	failed
